# Test results published in paper PMC10511116.
# Target: ErbB2 (HER2), recombinant (human) (UniProt P04626)
# Assay: ELONA
# Details: every T is Nap-dU (5-[N-(1-naphthylmethyl)carboxamide]-2'-deoxyuridine, printed P); ELONA: ErbB2-coated plate, biotin-aptamer 1 h at room temp, wash 10 mM PBS, 0.05% Tween-20, pH 7.4 (binding buffer not stated); cells: DPBS, 4.5 g/L glucose …
sequence,measurement,value
ATGTTAGAGTTTGCCTGAGTGCCTCGCAAGGGCGTAACAA [ErbB2 aptamer],Kd,1.37 nM
